Our source for the Kd values is publication PMC11997982.

Series [1] concerns the target T1, Udorn His-GST-ED WT (Influenza A virus A/Udorn/307/1972, UniProt P03495 86-237). Briefly: fluorescence polarization; […], pH 8.0, 1 h at room temperature; […]. Particulars: protein: recombinant; tags: N-term 10xHis-GST; label: 5'-FAM (FITC) on both strands; blunt.
Series [2] addresses T2, His-GST-ED WT (Influenza A virus A/Brevig …, UniProt Q99AU3 86-230). The series is described as above. The conditions noted are these: protein: recombinant; tags: N-term 10xHis-GST; chain copies: 3; label: 5'-FAM (FITC) on both strands; blunt.
In series [3] the target is T3, His-GST-RBD WT (Influenza A virus A/Brevig …, UniProt Q99AU3 1-85). Described as above. The conditions noted are these: protein: recombinant; tags: N-term 10xHis-GST; chain copies: 2; label: 5'-FAM (FITC) on both strands; blunt.
For series [4], the target named is T4, GST-RBD WT (Influenza A virus A/Brevig …, UniProt Q99AU3 1-85). The description is as above. Particulars: protein: recombinant; tags: GST; chain copies: 2; label: 5'-FAM (FITC) on both strands; blunt.
Series [5] deals with T5, His-RBD WT (Influenza A virus A/Brevig …, UniProt Q99AU3 1-85). The experiment in a line: fluorescence polarization; biphasic, first transition; […], pH 8.0, 1 h at room temperature; […]. Particulars: protein: recombinant; tags: N-term 10xHis; chain copies: 2; label: 5'-FAM (FITC) on both strands; blunt.
Series [6] concerns the target T1, Udorn His-GST-ED WT. The experiment in a line: fluorescence polarization; protein prep B, A260/280 0.85; […], pH 8.0, 1 h at room temperature; […]. The conditions noted are these: protein: recombinant; tags: N-term 10xHis-GST; label: 5'-FAM (FITC) on both strands; blunt. (Fluorescence polarisation rises when a labelled molecule tumbles more slowly, as on binding a larger partner.)

The target in series [7] is T5, His-RBD WT. Briefly: fluorescence polarization; biphasic, second transition; […], pH 8.0, 1 h at room temperature; […]. The conditions noted are these: protein: recombinant; tags: N-term 10xHis; chain copies: 2; label: 5'-FAM (FITC) on both strands; blunt.
Series [8] concerns the target T1, Udorn His-GST-ED WT. Briefly: EMSA (fEMSA); […], pH 8.0, 1 h at room temperature; […]. The conditions noted are these: protein: recombinant; tags: N-term 10xHis-GST; label: 5'-FAM (FITC) on both strands; blunt. (Mobility shift assays separate free from complexed probe on a gel.)
Series [9] deals with T2, His-GST-ED WT. The series is described as above. Particulars: protein: recombinant; tags: N-term 10xHis-GST; chain copies: 3; label: 5'-FAM (FITC) on both strands; blunt.
Series [10] deals with T3, His-GST-RBD WT. Described as above. Particulars: protein: recombinant; tags: N-term 10xHis-GST; chain copies: 2; label: 5'-FAM (FITC) on both strands; blunt.
In series [11] the target is T4, GST-RBD WT. Described as above. The conditions noted are these: protein: recombinant; tags: GST; chain copies: 2; label: 5'-FAM (FITC) on both strands; blunt.
For series [12], the target named is T5, His-RBD WT. The description is as above. Particulars: protein: recombinant; tags: N-term 10xHis; chain copies: 2; label: 5'-FAM (FITC) on both strands; blunt.

T1 sequence (P03495 86-237): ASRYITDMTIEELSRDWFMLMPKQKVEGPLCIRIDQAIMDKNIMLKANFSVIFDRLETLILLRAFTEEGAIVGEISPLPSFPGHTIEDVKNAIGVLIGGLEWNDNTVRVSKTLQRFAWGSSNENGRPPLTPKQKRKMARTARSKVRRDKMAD
T5 sequence (Q99AU3 1-85): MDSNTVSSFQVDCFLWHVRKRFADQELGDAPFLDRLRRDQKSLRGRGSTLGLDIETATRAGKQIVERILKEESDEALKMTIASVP
T3 sequence (Q99AU3 1-85): as above
T4 sequence (Q99AU3 1-85): as above
T2 sequence (Q99AU3 86-230): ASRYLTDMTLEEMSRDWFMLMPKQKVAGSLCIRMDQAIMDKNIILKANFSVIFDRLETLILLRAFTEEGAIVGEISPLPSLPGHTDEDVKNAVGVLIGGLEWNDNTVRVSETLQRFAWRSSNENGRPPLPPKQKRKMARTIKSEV

B1: FAM-dsRNA 16 bp (dsRNA)
RNA 1: CCAUCCUCUACAGGCG
RNA 2: CGCCUGUAGAGGAUGG
For orientation: Kd means the constant that tells how readily two partners part at equilibrium. Turning to B1, the Kd came out at 180 ± 21 nM in the series with Udorn His-GST-ED WT [1]; 1900 ± 250 nM with His-GST-ED WT [2]; 125 ± 9 nM with His-GST-RBD WT [3]; 76 ± 5 nM with GST-RBD WT [4]; 83 ± 11 nM with His-RBD WT [5]; 196 ± 23 nM with Udorn His-GST-ED WT [6]. For the same molecule, the Kd in the series with His-RBD WT [7] is 2160 ± 460 nM; with Udorn His-GST-ED WT [8], 170 ± 35 nM; with His-GST-ED WT [9], 3.5 ± 0.8 µM; with His-GST-RBD WT [10], 180 ± 42 nM; in the series with GST-RBD WT [11] it was 100 ± 32 nM; with His-RBD WT [12] it was 55 ± 16 nM.
